Test results from the supplement of paper PMC9112550, “Optimization of the antimicrobial peptide Bac7 by deep mutational scanning” (BMC Biology, 2022).

Each sequence was assayed on Escherichia coli TOP10 (assay: shrunken log2 fold change of peptide-encoding DNA abundance (4.5 h post-induction vs induction); higher = less antimicrobial activity (less host growth inhibition)). Conditions: time post-induction: 4.5 h; library: site-saturation at positions 5, 18, 19, 20.
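Further: peptides expressed intracellularly from a pBAD plasmid library in pooled LB shake-flask culture, induced with 0.3% L-arabinose, DNA abundance read by NGS, three biological replicates, DESeq2 with apeglm shrinkage.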

Which “shrunken log2 fold change” value does the source give for RRIRYRPPRLPRPRPRPLLLPRP here?
The value was -0.586.

For RRIRFRPPRLPRPRPRPMVPPRP, which “shrunken log2 fold change” value is on record?
The value was 0.0354.

With RRIRTRPPRLPRPRPRPRMVPRP as the sequence, how does the “shrunken log2 fold change” value read?
Its value is 0.0186.

Which “shrunken log2 fold change” value does the source give for RRIRNRPPRLPRPRPRPHENPRP here?
Its value is -0.164.

Which “shrunken log2 fold change” value does the source give for RRIRPRPPRLPRPRPRPEFQPRP here?
Its value is 0.0778.

With RRIRSRPPRLPRPRPRPICLPRP as the sequence, how does the “shrunken log2 fold change” value read?
The value was 0.259.

How did the “shrunken log2 fold change” value turn out when RRIRIRPPRLPRPRPRPLYKPRP was run?
Its value is -0.622.

For RRIRDRPPRLPRPRPRPMFTPRP, which “shrunken log2 fold change” value is on record?
The value was -0.174.

RRIRSRPPRLPRPRPRPGPEPRP was tested. Which “shrunken log2 fold change” value did it give?
The value was 0.221.

How did the “shrunken log2 fold change” value turn out when RRIRQRPPRLPRPRPRPKNHPRP was run?
Its value is -0.23.

How did the “shrunken log2 fold change” value turn out when RRIRMRPPRLPRPRPRPKGYPRP was run?
Its value is -0.0135.

How did the “shrunken log2 fold change” value turn out when RRIRFRPPRLPRPRPRPMQCPRP was run?
Its value is 0.188.

How did the “shrunken log2 fold change” value turn out when RRIRGRPPRLPRPRPRPYELPRP was run?
The value was -0.036.

RRIRQRPPRLPRPRPRPSKMPRP was tested. Which “shrunken log2 fold change” value did it give?
Its value is -0.0686.

For RRIRHRPPRLPRPRPRPNFNPRP, which “shrunken log2 fold change” value is on record?
The value was -0.509.

RRIRERPPRLPRPRPRPGACPRP was tested. Which “shrunken log2 fold change” value did it give?
The value was 0.0171.

With RRIRNRPPRLPRPRPRPRKPPRP as the sequence, how does the “shrunken log2 fold change” value read?
The value was -0.0565.

Which “shrunken log2 fold change” value does the source give for RRIRHRPPRLPRPRPRPINAPRP here?
The value was 0.0354.

How did the “shrunken log2 fold change” value turn out when RRIRIRPPRLPRPRPRPKVCPRP was run?
Its value is -0.028.

Which “shrunken log2 fold change” value does the source give for RRIRDRPPRLPRPRPRPKAGPRP here?
Its value is 0.143.

How did the “shrunken log2 fold change” value turn out when RRIRTRPPRLPRPRPRPNMTPRP was run?
The value was -0.0848.

How did the “shrunken log2 fold change” value turn out when RRIRRRPPRLPRPRPRPIGSPRP was run?
Its value is 0.318.

Which “shrunken log2 fold change” value does the source give for RRIRFRPPRLPRPRPRPYEYPRP here?
Its value is -0.488.

With RRIRRRPPRLPRPRPRPNVFPRP as the sequence, how does the “shrunken log2 fold change” value read?
The value was 0.426.

For RRIRKRPPRLPRPRPRPHMDPRP, which “shrunken log2 fold change” value is on record?
The value was 0.0185.

RRIRDRPPRLPRPRPRPGDIPRP was tested. Which “shrunken log2 fold change” value did it give?
The value was -0.0568.

With RRIRHRPPRLPRPRPRPWSCPRP as the sequence, how does the “shrunken log2 fold change” value read?
The value was -0.0195.

With RRIRDRPPRLPRPRPRPATMPRP as the sequence, how does the “shrunken log2 fold change” value read?
The value was 0.168.

RRIRHRPPRLPRPRPRPDQHPRP was tested. Which “shrunken log2 fold change” value did it give?
The value was -0.00237.

With RRIRFRPPRLPRPRPRPVENPRP as the sequence, how does the “shrunken log2 fold change” value read?
Its value is -0.109.

With RRIRHRPPRLPRPRPRPSYPPRP as the sequence, how does the “shrunken log2 fold change” value read?
The value was -0.868.

Which “shrunken log2 fold change” value does the source give for RRIRTRPPRLPRPRPRPDTCPRP here?
The value was -0.0125.

For RRIRGRPPRLPRPRPRPMWKPRP, which “shrunken log2 fold change” value is on record?
Its value is 0.0121.

Which “shrunken log2 fold change” value does the source give for RRIRCRPPRLPRPRPRPMKFPRP here?
The value was -0.0717.

For RRIRGRPPRLPRPRPRPSDSPRP, which “shrunken log2 fold change” value is on record?
Its value is -0.0596.

For RRIRTRPPRLPRPRPRPSVVPRP, which “shrunken log2 fold change” value is on record?
The value was -0.384.

How did the “shrunken log2 fold change” value turn out when RRIRWRPPRLPRPRPRPVLWPRP was run?
The value was 0.809.

For RRIRLRPPRLPRPRPRPREFPRP, which “shrunken log2 fold change” value is on record?
The value was 0.463.

For RRIRRRPPRLPRPRPRPNQRPRP, which “shrunken log2 fold change” value is on record?
Its value is 0.269.

With RRIRWRPPRLPRPRPRPPAGPRP as the sequence, how does the “shrunken log2 fold change” value read?
The value was 0.83.

With RRIRCRPPRLPRPRPRPTSEPRP as the sequence, how does the “shrunken log2 fold change” value read?
The value was 0.108.

For RRIRLRPPRLPRPRPRPSWVPRP, which “shrunken log2 fold change” value is on record?
Its value is -0.141.

RRIRDRPPRLPRPRPRPQYNPRP was tested. Which “shrunken log2 fold change” value did it give?
Its value is -0.446.

For RRIRFRPPRLPRPRPRPDQTPRP, which “shrunken log2 fold change” value is on record?
The value was 0.0441.

With RRIRNRPPRLPRPRPRPFCQPRP as the sequence, how does the “shrunken log2 fold change” value read?
Its value is -0.677.

With RRIRNRPPRLPRPRPRPYTGPRP as the sequence, how does the “shrunken log2 fold change” value read?
The value was -0.0137.

With RRIRPRPPRLPRPRPRPPMQPRP as the sequence, how does the “shrunken log2 fold change” value read?
Its value is 0.421.

Which “shrunken log2 fold change” value does the source give for RRIRQRPPRLPRPRPRPWFRPRP here?
The value was -0.145.

How did the “shrunken log2 fold change” value turn out when RRIRKRPPRLPRPRPRPLSCPRP was run?
Its value is 0.0262.

For RRIRQRPPRLPRPRPRPWGGPRP, which “shrunken log2 fold change” value is on record?
The value was 0.102.

How did the “shrunken log2 fold change” value turn out when RRIRSRPPRLPRPRPRPWMGPRP was run?
Its value is -0.238.

RRIRKRPPRLPRPRPRPSWWPRP was tested. Which “shrunken log2 fold change” value did it give?
The value was 0.138.

RRIRLRPPRLPRPRPRPIPNPRP was tested. Which “shrunken log2 fold change” value did it give?
The value was -0.135.

Which “shrunken log2 fold change” value does the source give for RRIRLRPPRLPRPRPRPQDTPRP here?
The value was -0.409.

For RRIRNRPPRLPRPRPRPIKMPRP, which “shrunken log2 fold change” value is on record?
Its value is -0.404.

RRIRQRPPRLPRPRPRPKPNPRP was tested. Which “shrunken log2 fold change” value did it give?
The value was 0.301.

For RRIRARPPRLPRPRPRPMGQPRP, which “shrunken log2 fold change” value is on record?
Its value is 0.229.

With RRIRHRPPRLPRPRPRPNRIPRP as the sequence, how does the “shrunken log2 fold change” value read?
Its value is -0.46.

For RRIRGRPPRLPRPRPRPVVSPRP, which “shrunken log2 fold change” value is on record?
The value was 0.62.

For RRIRGRPPRLPRPRPRPWCRPRP, which “shrunken log2 fold change” value is on record?
Its value is 0.195.

Which “shrunken log2 fold change” value does the source give for RRIRQRPPRLPRPRPRPPIKPRP here?
The value was -0.0648.

With RRIRGRPPRLPRPRPRPNAIPRP as the sequence, how does the “shrunken log2 fold change” value read?
The value was 0.668.

For RRIRVRPPRLPRPRPRPHGHPRP, which “shrunken log2 fold change” value is on record?
Its value is -0.0491.

RRIRNRPPRLPRPRPRPSGKPRP was tested. Which “shrunken log2 fold change” value did it give?
Its value is 0.0521.

Which “shrunken log2 fold change” value does the source give for RRIRSRPPRLPRPRPRPQLLPRP here?
Its value is -0.182.

RRIRDRPPRLPRPRPRPSCRPRP was tested. Which “shrunken log2 fold change” value did it give?
The value was -0.0363.

How did the “shrunken log2 fold change” value turn out when RRIRPRPPRLPRPRPRPISRPRP was run?
The value was 0.121.

How did the “shrunken log2 fold change” value turn out when RRIRCRPPRLPRPRPRPEYHPRP was run?
Its value is -0.222.

With RRIRWRPPRLPRPRPRPGGRPRP as the sequence, how does the “shrunken log2 fold change” value read?
Its value is 0.418.

With RRIRDRPPRLPRPRPRPEWDPRP as the sequence, how does the “shrunken log2 fold change” value read?
Its value is 1.4.

Which “shrunken log2 fold change” value does the source give for RRIRDRPPRLPRPRPRPQSLPRP here?
Its value is -0.0208.

How did the “shrunken log2 fold change” value turn out when RRIRIRPPRLPRPRPRPLESPRP was run?
Its value is 0.0516.

RRIRYRPPRLPRPRPRPCVVPRP was tested. Which “shrunken log2 fold change” value did it give?
The value was -0.0208.

With RRIRDRPPRLPRPRPRPYDAPRP as the sequence, how does the “shrunken log2 fold change” value read?
The value was -0.00235.

RRIRERPPRLPRPRPRPCNHPRP was tested. Which “shrunken log2 fold change” value did it give?
The value was -0.567.

Which “shrunken log2 fold change” value does the source give for RRIRKRPPRLPRPRPRPEPNPRP here?
Its value is 0.737.

Which “shrunken log2 fold change” value does the source give for RRIRIRPPRLPRPRPRPCSEPRP here?
Its value is -0.0312.

For RRIRQRPPRLPRPRPRPVTLPRP, which “shrunken log2 fold change” value is on record?
The value was -0.153.

For RRIRIRPPRLPRPRPRPFVQPRP, which “shrunken log2 fold change” value is on record?
The value was -0.634.

For RRIRCRPPRLPRPRPRPDRYPRP, which “shrunken log2 fold change” value is on record?
Its value is 0.00956.

With RRIRQRPPRLPRPRPRPNLNPRP as the sequence, how does the “shrunken log2 fold change” value read?
Its value is -0.221.

How did the “shrunken log2 fold change” value turn out when RRIRSRPPRLPRPRPRPRECPRP was run?
Its value is 0.71.

How did the “shrunken log2 fold change” value turn out when RRIRWRPPRLPRPRPRPEKQPRP was run?
The value was 0.0441.

For RRIRQRPPRLPRPRPRPKTFPRP, which “shrunken log2 fold change” value is on record?
Its value is -0.259.

How did the “shrunken log2 fold change” value turn out when RRIRLRPPRLPRPRPRPIRHPRP was run?
Its value is -0.144.

RRIRGRPPRLPRPRPRPQPRPRP was tested. Which “shrunken log2 fold change” value did it give?
The value was 0.9.

Which “shrunken log2 fold change” value does the source give for RRIRVRPPRLPRPRPRPPNSPRP here?
Its value is 0.12.

Which “shrunken log2 fold change” value does the source give for RRIRSRPPRLPRPRPRPVQNPRP here?
The value was 0.0832.

For RRIRARPPRLPRPRPRPWSVPRP, which “shrunken log2 fold change” value is on record?
The value was 0.0303.

For RRIRCRPPRLPRPRPRPSFIPRP, which “shrunken log2 fold change” value is on record?
The value was -0.811.

RRIRRRPPRLPRPRPRPQHYPRP was tested. Which “shrunken log2 fold change” value did it give?
The value was -0.128.

For RRIRCRPPRLPRPRPRPVMHPRP, which “shrunken log2 fold change” value is on record?
The value was -0.212.

RRIRTRPPRLPRPRPRPKLFPRP was tested. Which “shrunken log2 fold change” value did it give?
The value was -0.0805.

RRIRDRPPRLPRPRPRPINEPRP was tested. Which “shrunken log2 fold change” value did it give?
The value was -0.144.

For RRIRVRPPRLPRPRPRPMLIPRP, which “shrunken log2 fold change” value is on record?
Its value is -0.0178.

RRIRVRPPRLPRPRPRPDWAPRP was tested. Which “shrunken log2 fold change” value did it give?
The value was 0.133.

Which “shrunken log2 fold change” value does the source give for RRIRVRPPRLPRPRPRPFHVPRP here?
The value was -0.262.

RRIRERPPRLPRPRPRPNLWPRP was tested. Which “shrunken log2 fold change” value did it give?
The value was 0.0252.

For RRIRGRPPRLPRPRPRPNYQPRP, which “shrunken log2 fold change” value is on record?
Its value is -0.173.

Which “shrunken log2 fold change” value does the source give for RRIRQRPPRLPRPRPRPEHEPRP here?
The value was 0.0155.

With RRIRNRPPRLPRPRPRPWEFPRP as the sequence, how does the “shrunken log2 fold change” value read?
The value was -0.00197.

RRIRFRPPRLPRPRPRPGAYPRP was tested. Which “shrunken log2 fold change” value did it give?
The value was 0.116.

Which “shrunken log2 fold change” value does the source give for RRIRDRPPRLPRPRPRPNVTPRP here?
The value was -0.282.

With RRIRQRPPRLPRPRPRPDAQPRP as the sequence, how does the “shrunken log2 fold change” value read?
Its value is -9.3e-05.

How did the “shrunken log2 fold change” value turn out when RRIRWRPPRLPRPRPRPAVNPRP was run?
Its value is 0.185.

With RRIRGRPPRLPRPRPRPCICPRP as the sequence, how does the “shrunken log2 fold change” value read?
The value was 0.102.

With RRIRKRPPRLPRPRPRPAGIPRP as the sequence, how does the “shrunken log2 fold change” value read?
Its value is 0.252.

RRIRNRPPRLPRPRPRPPFMPRP was tested. Which “shrunken log2 fold change” value did it give?
Its value is -0.0578.

With RRIRTRPPRLPRPRPRPACSPRP as the sequence, how does the “shrunken log2 fold change” value read?
The value was 0.19.
